Target: T1, N3-2A, Modulator of β-cleavage of APP (MoBA)
T1 chain: DAVYYCGLKY

B1: purified β-secretase (protein)
chain: ETDEEPEEPGRRGSFVEMVDNLRGKSGQGYYVEMTVGSPPQTLNILVDTGSSNFAVGAAPHPFLHRYYQRQLSSTYRDLRKGVYVPYTQGKWEGELGTDLVSIPHGPNVTVRANIAAITESDKFFINGSNWEGILGLAYAEIARPDDSLEPFFDSLVKQTHVPNLFSLQLCGAGFPLNQSEVLASVGGSMIIGGIDHSLYTGSLWYTPIRREWYYEVIIVRVEINGQDLKMDCKEYNYDKSIVDSGTTNLRLPKKVFEAAVKSIKAASSTEKFPDGFWLGEQLVCWQAGTTPWNIFPVISLYLMGEVTNQSFRITILPQQYLRPVEDVATSQDDCYKFAISQSSTGTVMGAVIMEGFYVVFDRARKRIGFAVSACHVHDEFRTAAVEGPFVTLDMEDCGYNIPQTDESTLMT
  activity of purified β-secretase on a fluorescent substrate (FRET assay): N3-2A did not inhibit the activity of purified β-secretase

From patent publication US20140314790
